Patent US20210155907

Tests used:
Assay in all cases: cell_activity
[1] = test system: TAL3-Tet1-CD (KLF4 site 3); conditions: CpG demethylation at 22, 36, 116 and 143 bp downstream; K562 cells
[2] = test system: TAL1-Tet1-CD (TAL effector repeat array to KLF4 site 1, Gly3Ser linker, Tet1 catalytic domain); conditions: CpG demethylation 15 bp downstream of site (32.5% at 9 bp); K562 cells, bisulfite sequencing
[3] = test system: TAL2-Tet1-CD (KLF4 site 2); conditions: CpG demethylation 17 bp downstream (28.2% at 27 bp, none at 1 and 3 bp); K562 cells
[4] = test system: TAL4-Tet1-CD (KLF4 site 4); conditions: CpG demethylation 13 bp downstream, no other CpGs significant; K562 cells
[5] = test system: KLF4 six-finger ZF-Tet1 fusion (engineered); conditions: CpG demethylation 6 bp downstream (25% at 24 bp); K562 cells; one of two KLF4 ZF-Tet1 proteins

Substance: GGGGGCGGGCGGAGCCTTGGGGTCACCAAGAGCCACTGAACGAGGGTAAGGAGCGGCCACCGCGCGGACTCCGCAACCTTCCCGGGATAGCTTCCGTGTCCTTGGCTCAGCTGTGTATGCCCGTGGTGCGAGCACTGCGGAGCCGCCTGGGGCGCAAGCCGGGTCTTCACCAGTCCCCGGGCGCGCTGTCGGTAGGGCGGGCGCTCTCGGGCCACCGGGCGGGAGGTGGCCGCGTCCCCAGACACTGGCTGGGCCAGAGTGAGTTTAGCGCGTAGGCGGC (double strand) [KLF4 intron 1-2 TAL site 3]
- activity [1]: > 25%

Substance: GGGGGCGGGCGGAGCCTTGGGGTCACCAAGAGCCACTGAACGAGGGTAAGGAGCGGCCACCGCGCGGACTCCGCAACCTTCCCGGGATAGCTTCCGTGTCCTTGGCTCAGCTGTGTATGCCCGTGGTGCGAGCACTGCGGAGCCGCCTGGGGCGCAAGCCGGGTCTTCACCAGTCCCCGGGCGCGCTGTCGGTAGGGCGGGCGCTCTCGGGCCACCGGGCGGGAGGTGGCCGCGTCCCCAGACACTGGCTGGGCCAGAGTGAGTTTAGCGCGTAGGCGGC (double strand) [KLF4 intron 1-2 TAL site 1]
- activity [2]: 45.4%

Substance: GGGGGCGGGCGGAGCCTTGGGGTCACCAAGAGCCACTGAACGAGGGTAAGGAGCGGCCACCGCGCGGACTCCGCAACCTTCCCGGGATAGCTTCCGTGTCCTTGGCTCAGCTGTGTATGCCCGTGGTGCGAGCACTGCGGAGCCGCCTGGGGCGCAAGCCGGGTCTTCACCAGTCCCCGGGCGCGCTGTCGGTAGGGCGGGCGCTCTCGGGCCACCGGGCGGGAGGTGGCCGCGTCCCCAGACACTGGCTGGGCCAGAGTGAGTTTAGCGCGTAGGCGGC (double strand) [KLF4 intron 1-2 TAL site 2]
- activity [3]: 36.5%

Substance: GGGGGCGGGCGGAGCCTTGGGGTCACCAAGAGCCACTGAACGAGGGTAAGGAGCGGCCACCGCGCGGACTCCGCAACCTTCCCGGGATAGCTTCCGTGTCCTTGGCTCAGCTGTGTATGCCCGTGGTGCGAGCACTGCGGAGCCGCCTGGGGCGCAAGCCGGGTCTTCACCAGTCCCCGGGCGCGCTGTCGGTAGGGCGGGCGCTCTCGGGCCACCGGGCGGGAGGTGGCCGCGTCCCCAGACACTGGCTGGGCCAGAGTGAGTTTAGCGCGTAGGCGGC (double strand) [KLF4 intron 1-2 TAL site 4]
- activity [4]: 37%

Substance: KLF4 locus ZF site
- activity [5]: 68%
